Test results reported in paper PMC8558838 (The Journal of Experimental Medicine, 2021).

B1: hCD160-6×His tag protein [human] / WT hHVEM (L39-V202) fused with a PD-L1 transmembrane domain and EGFP, on cells [human] (parent complex)
chain 1: GCINITSSASQEGTRLNLICTVWHKKEEAEGFVVFLCKDRSGDCSPETSLKQLRLKRDPGIDGVGEISSQLMFTISQVTPLHSGTYQCCARSQKSGIRLQGHFFSILFTETGNYTVTGLKQRQHLEFSHNEGTLS
chain 2: LPSCKEDEYPVGSECCPKCSPGYRVKEACGELTGTVCEPCPPGTYIAHLNGLSKCLQCQMCDPAMGLRASRNCSRTENAVCGCSPGHFCIVQDGDHCAACRAYATSSPGQRVQKGGTESQDTLCQNCPPGTFSPNGTLEECQHQTKCSWLVTKAGAGTSSSHWV
B2: mouse CD160 (30I-154H) with C-terminal …, biotinylated [modified: biotin; biotin] [mouse] / full-length WT mouse HVEM-mCherry, on cells [mouse] (parent complex)
chain 1: IHVTSSASQKGGRLDLTCTLWHKKDEAEGLILFWCKDNPWNCSPETNLEQLRVKRDPETDGITEKSSQLVFTIEQATPSDSGTYQCCARSQKPEIYIHGHFLSVLVTGNHTEIRQRQRSHPDFSH
chain 2: QPSCRQEEFLVGDECCPMCNPGYHVKQVCSEHTGTVCAPCPPQTYTAHANGLSKCLPCGVCDPDMGLLTWQECSSWKDTVCRCIPGYFCENQDGSHCSTCLQHTTCPPGQRVEKRGTHDQDTVCADCLTGTFSLGGTQEECLPWTNCSAFQQEVRRGTNSTDTTCSSQVVYYVVSILLPLVIVGAGIAGFLICTRRHLHTSSVAKELEPFQEQQENTIRFPVTEVGFAETEEETASN
B3: full-length mouse LIGHT, on cells (mLIGHT-IRES-EGFP) [mouse] / full-length WT mouse HVEM-mCherry, on cells [mouse] (parent complex)
chain 1: MESVVQPSVFVVDGQTDIPFRRLEQNHRRRRCGTVQVSLALVLLLGAGLATQGWFLLRLHQRLGDIVAHLPDGGKGSWEKLIQDQRSHQANPAAHLTGANASLIGIGGPLLWETRLGLAFLRGLTYHDGALVTMEPGYYYVYSKVQLSGVGCPQGLANGLPITHGLYKRTSRYPKELELLVSRRSPCGRANSSRVWWDSSFLGGVVHLEAGEEVVVRVPGNRLVRPRDGTRSYFGAFMV
chain 2: B2 chain 2
B4: full-length mouse BTLA-EGFP, on cells [mouse] / full-length WT mouse HVEM-mCherry, on cells [mouse] (parent complex)
chain 1: EKATKRNDEECPVQLTITRNSKQSARTGELFKIQCPVKYCVHRPNVTWCKHNGTICVPLEVSPQLYTSWEENQSVPVFVLHFKPIHLSDNGSYSCSTNFNSQVINSHSVTIHVRERTQNSSEHPLITVSDIPDATNASGPSTMEERPGRTWLLYTLLPLGALLLLLACVCLLCFLKRIQGKEKKPSDLAGRDTNLVDIPASSRTNHQALPSGTGIYDNDPWSSMQDESELTISLQSERNNQGIVYASLNHCVIGRNPRQENNMQEAPTEYASICVRS
chain 2: B2 chain 2

Variants of: B1
Test: flow cytometry on cells stained with soluble protein

| ratio to parent | Variant |
| --- | --- |
| 1.1 | chain 2 E77A |
| 0.9 | chain 2 G51A |
| 0.8 | chain 2 N50A |
| 1.3 | chain 2 L49A |

Variants of: B2
Test: flow cytometry, cell–protein method; read off a plot

| Variant | ratio to parent |
| --- | --- |
| chain 2 H48D, chain 2 L52D | ~0.76 |
| chain 2 H48D, chain 2 L52R | ~0.66 |

Other lines, results leading:

| ratio to parent | Variant |
| --- | --- |
| ~1.4 | chain 2 H48A, chain 2 L52A |
| ~0.01 | chain 2 G34R, chain 2 V36A |
| ~0.01 | chain 2 G34D, chain 2 V36A |
| ~0.01 | chain 2 G34D, chain 2 V36D |
| ~0.01 | chain 2 G34D, chain 2 V36R |
| ~1 | chain 2 H48R, chain 2 L52A |
| ~0.01 | chain 2 G34A, chain 2 V36D |

Variants of: B2
Test: flow cytometry, cell–protein method

| Variant | ratio to parent |
| --- | --- |
| chain 2 K26D | 0.6 |
| chain 2 S98A | 1.1 |
| chain 2 S98D | 1.1 |
| chain 2 G34D | 0.1 |
| chain 2 G34A | 0.1 |
| chain 2 K77A | 1.1 |
| chain 2 T35D | 0.1 |
| chain 2 V36D | 0.1 |
| chain 2 A38W | 1.1 |
| chain 2 S30A | 0.9 |
| chain 2 S30D | 0.8 |
| chain 2 L56A | 1 |
| chain 2 R5D | 0.1 |
| chain 2 H96D | 1 |
| chain 2 A49D | 0.7 |
| chain 2 N50D | 0.1 |
| chain 2 N50A | 0.1 |
| chain 2 L52A | 0.9 |
| chain 2 L52R | 0.8 |
| chain 2 M18A | 0.6 |

The next lines start with the values.

| ratio to parent | Variant |
| --- | --- |
| 0.7 | chain 2 K26A |
| 0.1 | chain 2 G34R |
| 0.6 | chain 2 K77D |
| 0.1 | chain 2 T35A |
| 1.1 | chain 2 H48D |
| 1 | chain 2 H48R |
| 1 | chain 2 V36A |
| 0.1 | chain 2 E8R |
| 0.1 | chain 2 E8A |
| 0.1 | chain 2 A38D |
| 0.6 | chain 2 S30H |
| 0.9 | chain 2 L56D |
| 0.2 | chain 2 R5A |
| 1.1 | chain 2 T99A |
| 1.3 | chain 2 T99D |
| 0.3 | chain 2 G51D |
| 0.9 | chain 2 L52D |
| 0.1 | chain 2 M18D |
| 0.1 | chain 2 P17A |

Variants of: B3
Test: flow cytometry, cell–cell method

| Variant | ratio to parent |
| --- | --- |
| chain 2 S30H | 1.1 |
| chain 2 S30A | 1 |
| chain 2 L56A | 0.8 |
| chain 2 T99D | 0.7 |
| chain 2 T99A | 0.8 |
| chain 2 E8R | 1 |
| chain 2 E8A | 0.9 |
| chain 2 A38D | 1.1 |
| chain 2 L52D | 0.4 |
| chain 2 L52A | 0.7 |
| chain 2 L52R | 0.4 |
| chain 2 R5D | 1.1 |
| chain 2 R5A | 0.5 |
| chain 2 M18D | 0.9 |
| chain 2 H96D | 0.7 |
| chain 2 V36D | 0.9 |
| chain 2 N50A | 0.5 |
| chain 2 N50D | 0.5 |
| chain 2 K26D | 1.1 |
| chain 2 G34R | 0.6 |
| chain 2 G34A | 1.2 |
| chain 2 T35A | 0.7 |

Other lines, results leading:

| ratio to parent | Variant |
| --- | --- |
| 0.4 | chain 2 G51D |
| 0.8 | chain 2 P17A |
| 0.8 | chain 2 S30D |
| 0.6 | chain 2 L56D |
| 0.9 | chain 2 A38W |
| 1.2 | chain 2 A49D |
| 1.2 | chain 2 M18A |
| 1 | chain 2 V36A |
| 1.4 | chain 2 K77D |
| 1.8 | chain 2 K77A |
| 1 | chain 2 K26A |
| 1 | chain 2 H48R |
| 0.8 | chain 2 H48D |
| 0.8 | chain 2 S98D |
| 0.9 | chain 2 S98A |
| 0.9 | chain 2 G34D |
| 0.3 | chain 2 T35D |

Variants of: B3
Test: flow cytometry, cell–cell method; read off a plot

| Variant | ratio to parent |
| --- | --- |
| chain 2 H48D, chain 2 L52R | ~0.37 |
| chain 2 H48A, chain 2 L52A | ~0.28 |
| chain 2 H48R, chain 2 L52A | ~0.3 |
| chain 2 G34R, chain 2 V36A | ~1.2 |
| chain 2 G34D, chain 2 V36D | ~0.87 |
| chain 2 G34D, chain 2 V36A | ~1.1 |

Now from value to variant:

| ratio to parent | Variant |
| --- | --- |
| ~0.24 | chain 2 H48D, chain 2 L52A |
| ~0.25 | chain 2 H48D, chain 2 L52D |
| ~1.1 | chain 2 G34A, chain 2 V36D |
| ~1.3 | chain 2 G34D, chain 2 V36R |

Variants of: B4
Test: flow cytometry, cell–cell method

| Variant | ratio to parent |
| --- | --- |
| chain 2 V36A | 1 |
| chain 2 E8R | 0.7 |
| chain 2 L56D | 1.1 |
| chain 2 L56A | 1 |
| chain 2 S30A | 1 |
| chain 2 K77D | 1.2 |
| chain 2 A38W | 1.2 |
| chain 2 A38D | 1.2 |
| chain 2 T35A | 0.5 |
| chain 2 T35D | 0.1 |
| chain 2 A49D | 1.3 |
| chain 2 G51D | 1 |
| chain 2 G34D | 0.3 |
| chain 2 G34R | 0.1 |
| chain 2 H96D | 0.9 |
| chain 2 R5A | 0.7 |
| chain 2 L52R | 0.9 |
| chain 2 L52D | 0.8 |
| chain 2 L52A | 1 |
| chain 2 T99D | 0.9 |
| chain 2 P17A | 0.4 |

Results, then the variant that gave them:

| ratio to parent | Variant |
| --- | --- |
| 1.1 | chain 2 H48D |
| 1.1 | chain 2 H48R |
| 1 | chain 2 K26D |
| 0.9 | chain 2 K26A |
| 0.8 | chain 2 V36D |
| 1 | chain 2 E8A |
| 0.8 | chain 2 S30D |
| 0.9 | chain 2 S30H |
| 1.3 | chain 2 K77A |
| 0.9 | chain 2 N50D |
| 1.1 | chain 2 N50A |
| 1 | chain 2 M18D |
| 1.2 | chain 2 M18A |
| 1 | chain 2 G34A |
| 1 | chain 2 S98D |
| 1 | chain 2 S98A |
| 1.2 | chain 2 R5D |
| 1 | chain 2 T99A |

Variants of: B4
Test: flow cytometry, cell–cell method; read off a plot

| Variant | ratio to parent |
| --- | --- |
| chain 2 H48D, chain 2 L52D | ~1.1 |
| chain 2 H48D, chain 2 L52R | ~1.4 |
| chain 2 G34D, chain 2 V36R | ~0.05 |
| chain 2 G34R, chain 2 V36A | ~0.06 |

Continued, values first:

| ratio to parent | Variant |
| --- | --- |
| ~0.06 | chain 2 G34A, chain 2 V36D |
| ~1 | chain 2 H48D, chain 2 L52A |
| ~1.2 | chain 2 H48R, chain 2 L52A |
| ~0.88 | chain 2 H48A, chain 2 L52A |
| ~0.07 | chain 2 G34D, chain 2 V36A |
| ~0.06 | chain 2 G34D, chain 2 V36D |
